Measurements published in patent publication US20150147342A1 (published 2015).
Where a chain is given by its changes, count along the chain named. Blank lines part the entries; values can stand above or below the binder they belong to.

What was measured:
[1] = target: T1, Dimeric fibrinogen-like domain of mouse (Mus musculus) Ang-2 conjugated to human IgG1 (mouse (Mus musculus)); test: SPR, hIgG1 antibody captured, room temp
T1 construct: also called Dimeric Mouse Ang-2FD; Mouse Ang-2FD-hFc
Procedure: (§1) Antibody was captured on a goat anti-mouse IgG polyclonal antibody surface, a goat anti-human κ polyclonal antibody (Southern Biotech, Birmingham, Ala.) surface or a goat anti-human IgG polyclonal antibody (Jackson Immuno Research Lab, West Grove, Pa.) surface created through direct amine coupling to a BIACORE™ CM5 sensor chip to form a captured antibody surface. […] Antigen-antibody binding and dissociation were monitored in real time at room temperature. Kinetic analysis was performed to calculate KD and half-life of antigen/antibody complex dissociation.
The above experiment was repeated using selected purified anti-Ang-2 antibodies cloned onto human IgG1.

[2] = target: T1, Dimeric fibrinogen-like domain of mouse …; test: SPR, antibody captured on anti-human kappa, 25 C
Procedure: (§2) Additional binding experiments were conducted using selected anti-Ang-2 antibodies at two different temperatures to further assess cross-species affinity. Each selected antibody or control construct was captured at a flow rate of 40 μL/min for 1 minute on a goat anti-human kappa polyclonal antibody surface created through direct chemical coupling to a BIACORE™ chip to form a captured antibody surface.

[3] = target: T1, Dimeric fibrinogen-like domain of mouse …; test: SPR, antibody captured on anti-human kappa, 37 C
Procedure: as §2

Human Ang-2FD-hFc = target: T2, Human Ang-2FD-hFc (human); test: ELISA, 16.67 nM antibody + 2 nM human Ang-2FD-hFc, on coated hTie-2-mFc (competitor)
T2 construct: Order of the pieces follows the name (Ang-2FD, then hFc); also called Dimeric Human Ang-2FD; human Ang-2FD protein conjugated to human IgG
Procedure: (§3) Tie-2 is a natural receptor for Ang-2. Anti-Ang-2 antibodies were tested for their ability to block Ang-2 binding to human Tie-2 (hTie-2). hTie-2-mFc (a chimeric construct consisting of human Tie-2 conjugated to mouse IgG; SEQ ID NO:525) was coated onto 96-well plates at a concentration of 2 μg/ml and incubated overnight followed by washing four times in wash buffer (PBS with 0.05% Tween-20). The plate was then blocked with PBS (Irvine Scientific, Santa Ana, Calif.) containing 0.5% BSA (Sigma-Aldrich Corp., St. Louis, Mo.) for one hour at room temperature. In a separate plate, purified anti-Ang-2 antibodies, at a starting concentration of 50 nM, were serially diluted by a factor of three across the plate. […] The antibody/Ang-2FD-Fc mixture was then added to the plate containing hTie-2-mFc and incubated for one hour at room temperature.

Mouse Ang-2FD-hFc = target: T3, Mouse Ang-2FD-hFc (mouse (Mus musculus)); test: ELISA, 16.67 nM antibody + 8 nM mouse Ang-2FD-hFc, on coated hTie-2-mFc (competitor)
T3 construct: Order of the pieces follows the name; also called Dimeric Mouse Ang-2FD
Procedure: as §3

Monkey Ang-2FD-hFc = target: T4, Monkey Ang-2FD-hFc (monkey (Macca fascicularis)); test: ELISA, 16.67 nM antibody + 2 nM monkey Ang-2FD-hFc, on coated hTie-2-mFc (competitor)
T4 construct: Order of the pieces follows the name; also called Dimeric Monkey Ang-2FD
Procedure: as §3

[4] = target: T5, Dimeric fibrinogen-like domain of human Ang-2 conjugated to human IgG1 (human); test: SPR, antibody captured, room temp
T5 construct: also called Dimeric Human Ang-2FD; Human Ang-2FD-hFc
Procedure: as §1

[5] = target: T1, Dimeric fibrinogen-like domain of mouse …; test: SPR, antibody captured, room temp
Procedure: as §1

[6] = target: T6, Dimeric fibrinogen-like domain of monkey (Macca fascicularis) Ang-2 conjugated to human IgG1 (monkey (Macca fascicularis)); test: SPR, antibody captured, room temp
T6 construct: also called Dimeric Monkey Ang-2FD; Monkey Ang-2FD-hFc
Procedure: as §1

[7] = target: T5, Dimeric fibrinogen-like domain of human …; test: blocking ELISA, 16.67 nM antibody, coated hTie-2-mFc
Procedure: as §3

[8] = target: T1, Dimeric fibrinogen-like domain of mouse …; test: as above
Procedure: as §3

[9] = target: T6, Dimeric fibrinogen-like domain of …; test: as above
Procedure: as §3

B1: H1H685P (antibody, V domains shown)
VH: EVQLVESGGGLVQPGGSLRLSCAASGFTFSSYDIHWVRQATGKGLEWVSAIGPAGDTYYPGSVKGRFTISRENAKNSLYLQMNSLRAGDTAVYYCARGLITFGGLIAPFDYWGQGTLVTVSS
VL: EIVLTQSPGTLSLSPGERATLSCRASQSVSSTYLAWYQQKPGQAPRLLIYGASSRATGIPDRFSGSGSGTDFTLTISRLEPEDFAVYYCQHYDNSQTFGQGTKVEIK
notes: also called mAb1
Kd [1]: 0.148 nM
T1/2 [1]: 2.14 h
Kd [2]: 0.0651 nM
T1/2 [2]: 3.47 h
Kd [3]: 0.0939 nM
T1/2 [3]: 1.07 h

B2: H1H691P (antibody, V domains shown)
VH: EVQLVESGGGLVQPGRSLRLSCAASGFTFDDYAMHWVRQAPGKGLEWVSGISWNSGDIGYADSVKGRFTISRDNAKNSLYLQMNSLRAQDTALYYCAKAYGDYYYFYGMDVWGQGTTVTVS
VL: B1 VL with T32S, Y50F, G51S, H91Q, Q96L, Q100G
notes: Fully human antibody, human IgG1
Percent Blocking of Ang-2FD Binding to Tie-2 (Human Ang-2FD-hFc): 97.4%
Percent Blocking of Ang-2FD Binding to Tie-2 (Mouse Ang-2FD-hFc): 96.7%
Percent Blocking of Ang-2FD Binding to Tie-2 (Monkey Ang-2FD-hFc): 99.8%

B9: H1H695P (antibody, V domains shown)
VH: QVQLVESGGGVVQPGRSLRLSCAASGFTFSSYGMHWVRQAPGKGLEWVAVMWYDETNKYYADSVKGRFTISRDNSKNTLYLQMNSLRAEDTAVYYCARYSGYEDYYHGMDVWGQGTTVTVS
VL: EIVMTQSPATPSVSPGERATLSCRASQSISSNLAWYQQKPGQAPRLLIYGASTRATGIPARFSGSGSGTEFTLTISSLQSEDFAVYYCQHYNNWITFGQGTRLEIK
notes: as for B2
Percent Blocking of Ang-2FD Binding to Tie-2 (Human Ang-2FD-hFc): 98.4%
Percent Blocking of Ang-2FD Binding to Tie-2 (Mouse Ang-2FD-hFc): 97.6%

B10: H1H690P (antibody, V domains shown)
VH: EVQLVESGGGLVQPGESLRLSCAASGFTFSSYAMSWVRQGPGKGLEWVSSITGSGDTTYYADSVKGRFTISRDNSKNTLYLHMNSLRAEDTAVYYCAKDFLDYSTYLAFDLWGQGTMVTVSS
VL: EIVLTQSPATLSLSPGERATLSCRASQSVSSYLTWYQQKPGQAPRLLSYDASNRATGIPARFSGSGSGTDFTLTISSLEPEDFAVYYCQQRSNWPLTFGGGTKVEIK
notes: as for B2
Percent Blocking of Ang-2FD Binding to Tie-2 (Human Ang-2FD-hFc): 97.2%
Percent Blocking of Ang-2FD Binding to Tie-2 (Mouse Ang-2FD-hFc): 98%
Percent Blocking of Ang-2FD Binding to Tie-2 (Monkey Ang-2FD-hFc): 99.6%

B11: H1H693P (antibody, V domains shown)
VH: B10 VH with T52S, D56G, K65E
VL: DIQMTQSPSSVSASVGDRVTITCRASQGISSWLAWYQQKPGKAPKLLIYAASSLQSGVPSRFSGSGSGTDFTLTISSLQPEDFATYYCQQANSFPRTFGQGTKVEIK
notes: as for B2
Percent Blocking of Ang-2FD Binding to Tie-2 (Human Ang-2FD-hFc): 73.9%
Percent Blocking of Ang-2FD Binding to Tie-2 (Mouse Ang-2FD-hFc): 63.6%

Continued, values first:

Kd [4]: 0.0989 nM
T1/2 [4]: 1.82 h
Kd [5]: 0.143 nM
T1/2 [5]: 3.72 h
Kd [6]: 0.5 nM
T1/2 [6]: 4.69 h
Percent Blocking of Ang-2FD Binding to Tie-2 [7]: 99.5%
Percent Blocking of Ang-2FD Binding to Tie-2 [8]: 98.4%
Percent Blocking of Ang-2FD Binding to Tie-2 [9]: 95.5%
B3: H2M744N (antibody, V domains shown)
VH: QVQLVQSGVEVKKPGASVKVSCKTSGYTFSNNGFSWVRQAPGQGLEWLGWISGYNGNTNYAQKFQGRVTMTTDTSTSTAYMELRTLRSDDTAVYYCARDQDYSNFHWLDPWGQGTLVTVAS
VL: DIQMTQSPSSVSASVGDRVIITCRASQGLSSWLAWYQQKPGTAPKLLIHSASSLQTGVPSRFSGSGSGTEFALTINSLQPEDFGTYYCQQANSFPLTFGGGTRVEIK

Percent Blocking of Ang-2FD Binding to Tie-2 (Human Ang-2FD-hFc): 97.9%
Percent Blocking of Ang-2FD Binding to Tie-2 (Mouse Ang-2FD-hFc): 97.6%
Percent Blocking of Ang-2FD Binding to Tie-2 (Monkey Ang-2FD-hFc): 96.2%
B4: H1H744N (antibody, V domains shown)
VH: B3 VH
VL: B3 VL

Percent Blocking of Ang-2FD Binding to Tie-2 (Human Ang-2FD-hFc): 97%
Percent Blocking of Ang-2FD Binding to Tie-2 (Mouse Ang-2FD-hFc): 41.8%
B5: H1H704P (antibody, V domains shown)
VH: QVQLVESGGDVVQPGRSLRLSCAASGFTFSSYGMHWVRQAPGKGLEWVAIIWYDGSNKYYADSVKGRFTISRDNSKNTLYLQMNSLRVEDTAVYSCARDFSISSRHFDYWGQGTLVTVSS
VL: DIQMTQSPSSLSASVGDRVTITCRASQAINNYLAWFQQKPGKAPKSLIYATSNLQSGVPSQFSGSGSGTDYTLTISSLQPEDFATYYCQQYYIYPITFGQGTRLEIK
notes: as for B2

Percent Blocking of Ang-2FD Binding to Tie-2 (Human Ang-2FD-hFc): 97.1%
Percent Blocking of Ang-2FD Binding to Tie-2 (Mouse Ang-2FD-hFc): 95.9%
Percent Blocking of Ang-2FD Binding to Tie-2 (Monkey Ang-2FD-hFc): 99.8%
B6: H1H706P (antibody, V domains shown)
VH: QVQLVESGGGVVQPGRSLRLSCAASGFTFSSYGMHWVRQAPDKGLEWVAVKWDDGSNKYYADSVKGRFTISRDNSKNTLYLQMNSLRAEDTAVYYCAREGPYDFYSGYGAFDIWGQGTMVTVSS
VL: B11 VL with V11L, S31N, W32Y, Y36F, L46S, R61K, A91Y, F94Y
notes: as for B2

Percent Blocking of Ang-2FD Binding to Tie-2 (Human Ang-2FD-hFc): 95.1%
Percent Blocking of Ang-2FD Binding to Tie-2 (Mouse Ang-2FD-hFc): 93.8%
B7: H1H707P (antibody, V domains shown)
VH: B6 VH
VL: not shown
notes: as for B2

Kd [4]: 0.165 nM
T1/2 [4]: 0.715 h
Kd [5]: 0.529 nM
T1/2 [5]: 0.425 h
Kd [6]: 1.5 nM
T1/2 [6]: 0.682 h
Percent Blocking of Ang-2FD Binding to Tie-2 [7]: 99.5%
Percent Blocking of Ang-2FD Binding to Tie-2 [8]: 97.3%
Percent Blocking of Ang-2FD Binding to Tie-2 [9]: 97.4%
B8: H2M749N (antibody, V domains shown)
VH: QVQLVESGGGVVQPGRSLRLSCAASGFTFSSYGMHWVRQAPGKGLEWVAVIWYDEFNKYYADSVKGRFTISRDNSKNTLYLQMNSLRAEDTAVYYCARERESGYSYGFDYWGQGTLVTVSS
VL: B9 VL with P11L, S26G, I29V, H90Q, I95W, R102K, L103V
notes: Hybridoma-derived chimeric antibody, mouse constant domains; also called H1M749N; H1M749

Percent Blocking of Ang-2FD Binding to Tie-2 (Human Ang-2FD-hFc): 96.6%
Percent Blocking of Ang-2FD Binding to Tie-2 (Mouse Ang-2FD-hFc): 97.1%
Percent Blocking of Ang-2FD Binding to Tie-2 (Monkey Ang-2FD-hFc): 96.6%
B12: H1H724N (antibody, V domains shown)
VH: QVQLVESGGGVVQPGRSLRLSCAASGFTLSNYGMHWVRQAPGKGLEWVAVIWHDGSNTYYADSVKGRFTISRDNSKNTLYLQMNSLRAEDTAVYYCTREGLDFWSGYYPNWFDPWGQGTLVTVSS
VL: DIQMTQSPSSLSASVGDRVTITCRASQGIRNDLGWYQQKPGKAPKRLIYAASNLQGGVPSRFSGSGSGTEFTLTISSLQPEDFAAYYCLQHNIYPLTFGGGTKVEIK
